Laboratory results published in US20260031189A1, “METHOD AND SYSTEMS FOR PREDICTION OF HLA CLASS II-SPECIFIC EPITOPES AND CHARACTERIZATION OF CD4+ T CELLS” (BioNTech US Inc., priority 2022, published 2026).

T1: HLA-DRA*01:01/DRB1*15:01 soluble heterodimer (human)
T1 chain 1: not shown
T1 chain 2: not shown

T2: HLA-DPA1*01:03/DPB1*04:01 soluble heterodimer (human), P20036
T2 chain 1: not shown
T2 chain 2: not shown


Molecular target: T1, HLA-DRA*01:01/DRB1*15:01 soluble …
Experiment: FP competition with FITC probe, HLA-sDM, average

Binder	IC50 [nM]
PTESIVRFPNITNLCPF (modifications not checked) [S322-338]	26
ADAGFIKQYGDCLGDIA (modifications not checked) [S829-845]	56
CSNLLLQYGSFCTQ (modifications not checked) [S749-762]	270
FQTLLALHRSYLTPGDS (modifications not checked) [S238-254]	140

Molecular target: T2, HLA-DPA1*01:03/DPB1*04:01 soluble …
Experiment: FP competition with FITC probe, HLA-sDM, average

Binder	IC50 [nM]
EKKYFAATKFEPLAARL (modifications not checked)	30
IGINITRFQTLLA (modifications not checked) [S231-243]	510
CTFEYVSQPFLMDLEGK (modifications not checked) [S166-182]	11
CEFQFCNDPFLGVYYHK (modifications not checked) [S131-147]	58

Molecular target: HLA-DQA1*01:02/DQB1*06:02 soluble heterodimer (human), P01920
Experiment: FP competition with FITC probe, HLA-sDM, average

Binder	IC50 [nM]
IGINITRFQTLLA (modifications not checked) [S231-243]	> 50000
EIDRLNEVAKNLNES (modifications not checked) [S1182-1196]	> 50000
LPDDFTGCVIAWNSNN (modifications not checked) [S425-440]	390
AAATAGTTVYGAKAA (modifications not checked)	1100
TQQLIRAAEIRASAN (modifications not checked) [S1009-1023]	520
GGFNFSQILPDPS (modifications not checked) [S798-810]	1200
PDKVFRSSVLHSTQDL (modifications not checked) [S39-54]	1600
